The results in this text go back to article PMC9353652 (Journal of the American Chemical Society, 2021).

Experiment [1] deals with ATP-grasp ligase CdnC (Chryseobacterium gregarium DSM 19109). The experiment can be described thus: SEC.

Usually stoichiometry N stands for the number of molecules, sites or subunits per partner or assembly.

As to ATP-grasp ligase CdnC (enzyme), the stoichiometry N in experiment [1] is 2. As for “chryseoviridin (fully cyclized, full length core region of CdnA3) (peptide)”, the inhibition of chymotrypsin activity (protease inhibition assay) with chymotrypsin came to 70 nM.
